Results as given in FireProtDB (doi:10.1021/bi00815a015).
Several values for one entry are separate records, joined by “and”; a condition that tells them apart may be missing. Equal values may be shown once.

Conditions: Aspergillus oryzae (strain ATCC 42149 / RIB 40), Thermal, DSC, whole UniProt chain shown
[1] = pH 0.36, glycine 0.2 N, HCl, reversible: yes
[2] = pH 1.05, HCl, NaCl 0.2 N, reversible: yes
[3] = pH 2.02, glycine 0.2 N, reversible: yes
[4] = pH 2.8, glycine 0.2 N, reversible: yes
[5] = pH 3.28, glycine 0.2 N, reversible: yes
[6] = pH 4.04, acetate 0.2 N, reversible: no
[7] = pH 5, acetate 0.2 N, reversible: no
[8] = pH 6.23, acetate 0.2 N, reversible: no
[9] = pH 7, None, NaCl 0.2 N, reversible: no
[10] = pH 7.8, None, NaCl 0.2 N, reversible: no

B1: Guanyl-specific ribonuclease T1 wild type, P00651 (protein)
chain: MMYSKLLTLTTLLLPTALALPSLVERACDYTCGSNCYSSSDVSTAQAAGYQLHEDGETVGSNSYPHKYNNYEGFDFSVSSPYYEWPILSSGDVYSGGSPGADRVVFNENNQLAGVITHTGASGNNFVECT
Which results are given for B1?
Tm (pH 0.36, HCl, reversible: yes): 25 °C; unfolding enthalpy (calorimetric) (pH 0.36, HCl, reversible: yes): 48.7 kcal/mol; Tm [1]: 31.5 °C; heat capacity change of unfolding [1]: 1.9 kcal/mol/K; unfolding enthalpy (calorimetric) [1]: 61.2 kcal/mol; unfolding enthalpy (van 't Hoff) [1]: 62 kcal/mol; Tm [2]: 25 °C; unfolding enthalpy (calorimetric) [2]: 49.1 kcal/mol; Tm [3]: 31.2 °C; heat capacity change of unfolding [3]: 1.98 kcal/mol/K; unfolding enthalpy (calorimetric) [3]: 65.6 kcal/mol; unfolding enthalpy (van 't Hoff) [3]: 67 kcal/mol; heat capacity change of unfolding [4]: 2.11 kcal/mol/K; unfolding enthalpy (calorimetric) [4]: 87.7 kcal/mol and 54.8 kcal/mol; unfolding enthalpy (van 't Hoff) [4]: 68 kcal/mol; Tm [5]: 25 °C; unfolding enthalpy (calorimetric) [5]: 63.4 kcal/mol; heat capacity change of unfolding [6]: 2.08 kcal/mol/K; unfolding enthalpy (calorimetric) [6]: 126 kcal/mol and 69.2 kcal/mol; unfolding enthalpy (van 't Hoff) [6]: 64 kcal/mol; heat capacity change of unfolding [7]: 2.25 kcal/mol/K; unfolding enthalpy (calorimetric) [7]: 151 kcal/mol and 77.2 kcal/mol; unfolding enthalpy (van 't Hoff) [7]: 60 kcal/mol; heat capacity change of unfolding [8]: 2.05 kcal/mol/K; unfolding enthalpy (calorimetric) [8]: 156 kcal/mol and 81.2 kcal/mol; unfolding enthalpy (van 't Hoff) [8]: 66 kcal/mol; heat capacity change of unfolding [9]: 2.07 kcal/mol/K; unfolding enthalpy (calorimetric) [9]: 168 kcal/mol and 92.9 kcal/mol; unfolding enthalpy (van 't Hoff) [9]: 88 kcal/mol; heat capacity change of unfolding [10]: 2 kcal/mol/K; unfolding enthalpy (calorimetric) [10]: 178 kcal/mol and 106 kcal/mol; unfolding enthalpy (van 't Hoff) [10]: 72 kcal/mol
